{"source": "patent US20220204580A1", "about": "(AstraZeneca / MedImmune, published 2022)", "binders": {"B1": {"name": "Peptide 118 (SEQ ID NO: 118) (peptide)", "peptide": "K([γGlu-γGlu-C20 diacid])CNIATCATQRLANFLVHSIANFGPILPPTNVGSRTY-NH2", "modifications": "disulfide 2-7; N-terminus assumed", "SMILES": "CC[C@H](C)[C@H](NC(=O)[C@H](CO)NC(=O)[C@H](Cc1c[nH]cn1)NC(=O)[C@@H](NC(=O)[C@H](CC(C)C)NC(=O)[C@H](Cc1ccccc1)NC(=O)[C@H](CC(N)=O)NC(=O)[C@H](C)NC(=O)[C@H](CC(C)C)NC(=O)[C@H](CCCNC(=N)N)NC(=O)[C@H](CCC(N)=O)NC(=O)[C@@H](NC(=O)[C@H](C)NC(=O)[C@@H]1CSSC[C@H](NC(=O)[C@@H](N)CCCCNC(=O)CC[C@H](NC(=O)CC[C@H](NC(=O)CCCCCCCCCCCCCCCCCCC(=O)O)C(=O)O)C(=O)O)C(=O)N[C@@H](CC(N)=O)C(=O)N[C@@H]([C@@H](C)CC)C(=O)N[C@@H](C)C(=O)N[C@@H]([C@@H](C)O)C(=O)N1)[C@@H](C)O)C(C)C)C(=O)N[C@@H](C)C(=O)N[C@@H](CC(N)=O)C(=O)N[C@@H](Cc1ccccc1)C(=O)NCC(=O)N1CCC[C@H]1C(=O)N[C@H](C(=O)N[C@@H](CC(C)C)C(=O)N1CCC[C@H]1C(=O)N1CCC[C@H]1C(=O)N[C@H](C(=O)N[C@@H](CC(N)=O)C(=O)N[C@H](C(=O)NCC(=O)N[C@@H](CO)C(=O)N[C@@H](CCCNC(=N)N)C(=O)N[C@H](C(=O)N[C@@H](Cc1ccc(O)cc1)C(N)=O)[C@@H](C)O)C(C)C)[C@@H](C)O)[C@@H](C)CC"}, "B2": {"name": "Peptide 119 (SEQ ID NO: 119) (peptide)", "peptide": "K([γGlu-γGlu-C20 diacid])CNTATCATQRLANFLVHSPPNFPAILSPTNVGSNTY-NH2", "modifications": "disulfide 2-7; N-terminus assumed", "SMILES": "CC[C@H](C)[C@H](NC(=O)[C@H](C)NC(=O)[C@@H]1CCCN1C(=O)[C@H](Cc1ccccc1)NC(=O)[C@H](CC(N)=O)NC(=O)[C@@H]1CCCN1C(=O)[C@@H]1CCCN1C(=O)[C@H](CO)NC(=O)[C@H](Cc1c[nH]cn1)NC(=O)[C@@H](NC(=O)[C@H](CC(C)C)NC(=O)[C@H](Cc1ccccc1)NC(=O)[C@H](CC(N)=O)NC(=O)[C@H](C)NC(=O)[C@H](CC(C)C)NC(=O)[C@H](CCCNC(=N)N)NC(=O)[C@H](CCC(N)=O)NC(=O)[C@@H](NC(=O)[C@H](C)NC(=O)[C@@H]1CSSC[C@H](NC(=O)[C@@H](N)CCCCNC(=O)CC[C@H](NC(=O)CC[C@H](NC(=O)CCCCCCCCCCCCCCCCCCC(=O)O)C(=O)O)C(=O)O)C(=O)N[C@@H](CC(N)=O)C(=O)N[C@@H]([C@@H](C)O)C(=O)N[C@@H](C)C(=O)N[C@@H]([C@@H](C)O)C(=O)N1)[C@@H](C)O)C(C)C)C(=O)N[C@@H](CC(C)C)C(=O)N[C@@H](CO)C(=O)N1CCC[C@H]1C(=O)N[C@H](C(=O)N[C@@H](CC(N)=O)C(=O)N[C@H](C(=O)NCC(=O)N[C@@H](CO)C(=O)N[C@@H](CC(N)=O)C(=O)N[C@H](C(=O)N[C@@H](Cc1ccc(O)cc1)C(N)=O)[C@@H](C)O)C(C)C)[C@@H](C)O"}, "B3": {"name": "Peptide 120 (SEQ ID NO: 120) (peptide)", "peptide": "K([γGlu-γGlu-C20 diacid])CNAATCATQRLANWLVHSSPNFPAILSPTNVGSNTY-NH2", "modifications": "disulfide 2-7; N-terminus assumed", "SMILES": "CC[C@H](C)[C@H](NC(=O)[C@H](C)NC(=O)[C@@H]1CCCN1C(=O)[C@H](Cc1ccccc1)NC(=O)[C@H](CC(N)=O)NC(=O)[C@@H]1CCCN1C(=O)[C@H](CO)NC(=O)[C@H](CO)NC(=O)[C@H](Cc1c[nH]cn1)NC(=O)[C@@H](NC(=O)[C@H](CC(C)C)NC(=O)[C@H](Cc1c[nH]c2ccccc12)NC(=O)[C@H](CC(N)=O)NC(=O)[C@H](C)NC(=O)[C@H](CC(C)C)NC(=O)[C@H](CCCNC(=N)N)NC(=O)[C@H](CCC(N)=O)NC(=O)[C@@H](NC(=O)[C@H](C)NC(=O)[C@@H]1CSSC[C@H](NC(=O)[C@@H](N)CCCCNC(=O)CC[C@H](NC(=O)CC[C@H](NC(=O)CCCCCCCCCCCCCCCCCCC(=O)O)C(=O)O)C(=O)O)C(=O)N[C@@H](CC(N)=O)C(=O)N[C@@H](C)C(=O)N[C@@H](C)C(=O)N[C@@H]([C@@H](C)O)C(=O)N1)[C@@H](C)O)C(C)C)C(=O)N[C@@H](CC(C)C)C(=O)N[C@@H](CO)C(=O)N1CCC[C@H]1C(=O)N[C@H](C(=O)N[C@@H](CC(N)=O)C(=O)N[C@H](C(=O)NCC(=O)N[C@@H](CO)C(=O)N[C@@H](CC(N)=O)C(=O)N[C@H](C(=O)N[C@@H](Cc1ccc(O)cc1)C(N)=O)[C@@H](C)O)C(C)C)[C@@H](C)O"}, "B4": {"name": "Peptide 121 (SEQ ID NO: 121) (peptide)", "peptide": "K([γGlu-γGlu-C20 diacid])CNTATCATQRLANFLVHSS[Aib]NF[Hyp]AILSPTNVGSNTY-NH2", "modifications": "disulfide 2-7; not fully specified; printed as K(γE-γE-C20diacid)[CNTATC]ATQRLANFLVHSS(Aib)NF(Hyp)AILSPTNVGSNTY-amide"}, "B5": {"name": "Peptide 122 (SEQ ID NO: 122) (peptide)", "peptide": "K([γGlu-γGlu-C18 diacid])CNTATCATQRLANFLVHSS[Aib]NFPAILSPT[Dab]VGSNTY-NH2", "modifications": "disulfide 2-7; N-terminus assumed", "SMILES": "CC[C@H](C)[C@H](NC(=O)[C@H](C)NC(=O)[C@@H]1CCCN1C(=O)[C@H](Cc1ccccc1)NC(=O)[C@H](CC(N)=O)NC(=O)C(C)(C)NC(=O)[C@H](CO)NC(=O)[C@H](CO)NC(=O)[C@H](Cc1c[nH]cn1)NC(=O)[C@@H](NC(=O)[C@H](CC(C)C)NC(=O)[C@H](Cc1ccccc1)NC(=O)[C@H](CC(N)=O)NC(=O)[C@H](C)NC(=O)[C@H](CC(C)C)NC(=O)[C@H](CCCNC(=N)N)NC(=O)[C@H](CCC(N)=O)NC(=O)[C@@H](NC(=O)[C@H](C)NC(=O)[C@@H]1CSSC[C@H](NC(=O)[C@@H](N)CCCCNC(=O)CC[C@H](NC(=O)CC[C@H](NC(=O)CCCCCCCCCCCCCCCCC(=O)O)C(=O)O)C(=O)O)C(=O)N[C@@H](CC(N)=O)C(=O)N[C@@H]([C@@H](C)O)C(=O)N[C@@H](C)C(=O)N[C@@H]([C@@H](C)O)C(=O)N1)[C@@H](C)O)C(C)C)C(=O)N[C@@H](CC(C)C)C(=O)N[C@@H](CO)C(=O)N1CCC[C@H]1C(=O)N[C@H](C(=O)N[C@@H](CCN)C(=O)N[C@H](C(=O)NCC(=O)N[C@@H](CO)C(=O)N[C@@H](CC(N)=O)C(=O)N[C@H](C(=O)N[C@@H](Cc1ccc(O)cc1)C(N)=O)[C@@H](C)O)C(C)C)[C@@H](C)O"}}, "key": {"[1]": {"target": "T1, human amylin receptor (calcitonin receptor co-expressed with receptor activity modifying protein, RAMP3) (human, UniProt P30988 25-474; O60896 24-148)", "T1 sequence (looked up) 1": "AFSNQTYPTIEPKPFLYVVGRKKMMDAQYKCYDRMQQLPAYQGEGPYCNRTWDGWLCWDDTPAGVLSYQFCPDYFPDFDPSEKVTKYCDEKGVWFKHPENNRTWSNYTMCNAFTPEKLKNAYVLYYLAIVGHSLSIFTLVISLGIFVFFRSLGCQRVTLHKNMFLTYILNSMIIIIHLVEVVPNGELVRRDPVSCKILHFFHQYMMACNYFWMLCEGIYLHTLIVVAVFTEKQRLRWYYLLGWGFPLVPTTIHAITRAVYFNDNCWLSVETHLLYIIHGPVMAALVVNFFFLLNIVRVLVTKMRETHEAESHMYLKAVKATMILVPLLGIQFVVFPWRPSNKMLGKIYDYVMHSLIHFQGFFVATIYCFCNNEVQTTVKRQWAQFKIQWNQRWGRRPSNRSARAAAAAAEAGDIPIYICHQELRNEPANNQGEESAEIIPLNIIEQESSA", "T1 sequence (looked up) 2": "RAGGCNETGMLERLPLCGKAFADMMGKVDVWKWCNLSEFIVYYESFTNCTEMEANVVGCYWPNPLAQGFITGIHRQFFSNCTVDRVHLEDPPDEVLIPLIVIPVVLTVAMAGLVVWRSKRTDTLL", "assay": "cell-based or functional assay"}, "[2]": {"target": "T2, human calcitonin receptor (human, UniProt P30988 25-474)", "T2 sequence (looked up)": "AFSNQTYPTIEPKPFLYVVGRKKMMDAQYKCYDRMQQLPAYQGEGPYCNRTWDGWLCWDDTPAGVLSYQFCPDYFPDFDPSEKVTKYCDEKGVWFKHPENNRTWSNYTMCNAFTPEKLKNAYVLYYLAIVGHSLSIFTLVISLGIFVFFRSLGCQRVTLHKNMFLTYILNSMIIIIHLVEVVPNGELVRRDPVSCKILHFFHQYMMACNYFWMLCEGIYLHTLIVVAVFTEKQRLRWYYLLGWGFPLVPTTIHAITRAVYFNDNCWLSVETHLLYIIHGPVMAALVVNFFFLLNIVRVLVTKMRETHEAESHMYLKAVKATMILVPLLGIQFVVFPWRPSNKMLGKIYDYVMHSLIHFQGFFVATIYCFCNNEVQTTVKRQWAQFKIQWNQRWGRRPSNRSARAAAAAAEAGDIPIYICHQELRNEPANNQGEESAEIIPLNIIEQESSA", "assay": "cell-based or functional assay"}}, "note": "Numbered stars: 1 amine (or outer) side, 2 acyl side, 3 side chain; on linkers, the order of the positions; unused ones are H or OH. Bridge positions count the residues as written; N and C are the ends. Square brackets hold non-standard residues; d marks the D form. Side chains are listed from the residue outwards. Ends that are not written are not given here. * marks the point of attachment. C20 diacid = O=C(O)CCCCCCCCCCCCCCCCCCC(=O)*; C18 diacid = O=C(O)CCCCCCCCCCCCCCCCC(=O)*; γGlu = O=C(O)[C@H](CCC(=O)[*:2])N[*:1]; Hyp = O=C(O)[C@@H]1C[C@@H](O)CN1; Dab = NCC[C@H](N)C(=O)O; Aib = CC(C)(N)C(=O)O", "data": [{"binder": "B1", "values": [{"measurement": "EC50 (cAMP production)", "setting": "[1]", "result": 0.417, "unit": "nM"}, {"measurement": "Ratio (EC50 hCTR / EC50 hAMYR3)", "setting": "[1]", "result": 2}, {"measurement": "EC50 (cAMP production)", "setting": "[2]", "result": 0.792, "unit": "nM"}]}, {"binder": "B2", "values": [{"measurement": "EC50 (cAMP production)", "setting": "[1]", "result": 1.46, "unit": "nM"}, {"measurement": "Ratio (EC50 hCTR / EC50 hAMYR3)", "setting": "[1]", "result": 24}, {"measurement": "EC50 (cAMP production)", "setting": "[2]", "result": 34.7, "unit": "nM"}]}, {"binder": "B3", "values": [{"measurement": "EC50 (cAMP production)", "setting": "[1]", "result": 1.77, "unit": "nM"}, {"measurement": "Ratio (EC50 hCTR / EC50 hAMYR3)", "setting": "[1]", "result": 6}, {"measurement": "EC50 (cAMP production)", "setting": "[2]", "result": 10.7, "unit": "nM"}]}, {"binder": "B4", "values": [{"measurement": "EC50 (cAMP production)", "setting": "[1]", "result": 1.33, "unit": "nM"}, {"measurement": "Ratio (EC50 hCTR / EC50 hAMYR3)", "setting": "[1]", "result": 5}, {"measurement": "EC50 (cAMP production)", "setting": "[2]", "result": 6.07, "unit": "nM"}]}, {"binder": "B5", "values": [{"measurement": "EC50 (cAMP production)", "setting": "[1]", "result": 0.655, "unit": "nM"}, {"measurement": "Ratio (EC50 hCTR / EC50 hAMYR3)", "setting": "[1]", "result": 9}, {"measurement": "EC50 (cAMP production)", "setting": "[2]", "result": 6.18, "unit": "nM"}]}]}
